Experimental data reported in article PMC7800377.

Biological target: SUN domain of human SUN1 (amino acid residues 616–812), tags removed (human)
Experiment: SEC-MALS; co-expressed and co-purified samples at >1 mg/ml on Superdex 200 Increase 10/300 GL in 20 mM Tris pH 8.0, 150 mM KCl, 2 mM DTT

Chain of KASH domain of human Nesprin-1 (KASH1, amino acid residues 8769–8797), tags removed (Q8NF91 8769-8797): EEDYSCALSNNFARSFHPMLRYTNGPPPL

“KASH domain of human Nesprin-1 (KASH1, amino acid residues 8769–8797), tags removed (from UniProt Q8NF91 8769-8797) (domain or fragment)” was tested, and the stoichiometry N (binder:target ratio (6:6)) was 1.
